From US5939263 come the findings set out here.

What is called IC50 is the point on the concentration scale where inhibition reaches its midpoint. Low values mean higher potency, high ones lower potency.

For this assay, the target named is murine neuropeptide Y Yx receptor (murine). Kind of assay: displacement of ^125 I-PYY (90 pM) from membranes of COS-7 cells transfected with the murine NPY Yx receptor.
Substance NPY(13-36) (peptide) gave a half-inhibitory concentration (IC50) of 0.134 µM.
To peptide YY belongs 0.014 µM.
The result for Neuropeptide Y reads 0.006 µM.
To NPY(2-36) (peptide) belongs 0.016 µM; to Leu^31, Pro^34 !NPY (peptide), 0.009 µM.
